From article PMC7064759

Tests used:
Test in all cases: BLI
Conditions in all cases: BLI: 20 mM Tris-HCl pH 7.4, 80 mM NaCl, temperature not stated; pull-down: 20 mM Tris-HCl pH 7.5, 300 mM KCl, 0.2 mM EDTA, 0.5 mM DTT, 5 ug/ml poly(I.C) …
[1] = system: T1, RBM45 aa 2-257 as printed, Q8IUH3-3
T1 sequence: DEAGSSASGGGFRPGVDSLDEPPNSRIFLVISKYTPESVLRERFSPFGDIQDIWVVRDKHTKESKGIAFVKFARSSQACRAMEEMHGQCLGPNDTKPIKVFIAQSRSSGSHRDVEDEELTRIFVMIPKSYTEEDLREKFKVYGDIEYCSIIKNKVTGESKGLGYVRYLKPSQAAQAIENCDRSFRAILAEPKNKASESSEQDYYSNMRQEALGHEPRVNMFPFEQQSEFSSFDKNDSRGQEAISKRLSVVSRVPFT

[2] = system: T2, RBM45 RRM2-HOA (domain 2-HOA), Q8IUH3-3
T2 sequence: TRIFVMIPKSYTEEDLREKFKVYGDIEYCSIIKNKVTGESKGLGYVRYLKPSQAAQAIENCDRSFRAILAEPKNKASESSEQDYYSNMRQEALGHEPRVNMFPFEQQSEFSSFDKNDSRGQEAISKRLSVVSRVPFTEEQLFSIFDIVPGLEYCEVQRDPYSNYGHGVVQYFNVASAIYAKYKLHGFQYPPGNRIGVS

[3] = system: T3, RBM45 domain 2-3, Q8IUH3-3
T3 sequence: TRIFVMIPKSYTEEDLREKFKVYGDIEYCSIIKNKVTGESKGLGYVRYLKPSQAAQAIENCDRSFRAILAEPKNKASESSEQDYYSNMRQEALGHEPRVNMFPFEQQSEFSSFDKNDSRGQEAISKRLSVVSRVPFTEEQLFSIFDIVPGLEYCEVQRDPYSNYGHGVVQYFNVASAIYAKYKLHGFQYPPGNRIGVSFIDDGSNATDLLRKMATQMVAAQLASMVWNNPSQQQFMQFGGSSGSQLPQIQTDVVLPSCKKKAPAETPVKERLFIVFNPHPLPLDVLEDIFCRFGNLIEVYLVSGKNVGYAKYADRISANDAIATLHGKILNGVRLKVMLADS

## GUAAAGCUACGGGACGGU [ISE3]
[1]
  Kd: 43 nM
[2]
  Kd: 21.3 nM
[3]
  Kd: 21.8 nM
